The record followed here is paper PMC6888457, “PpAKR1A, a Novel Aldo-Keto Reductase from Physcomitrella Patens, Plays a Positive Role in Salt Stress” (International Journal of Molecular Sciences, 2019).

What is called Km is the substrate concentration at which the rate is half of its maximum. Usually kcat stands for the number of substrate molecules converted per active site and unit of time at saturation. The term kcat/Km denotes the turnover number divided by the Michaelis constant.

One data set addresses T1, PpAKR1A (Physcomitrium patens, UniProt A9RMV1).
T1 construct: gene LOC112295666; full coding region (from ATGGCGTTCGAAGTGCCT), expressed in E. coli BL21 from pMAL-c1 (BamHI/SalI); purified on Ni-NTA as 'His-fusion' (tag description inconsistent: MBP vector vs His)
T1 sequence (A9RMV1 1-354): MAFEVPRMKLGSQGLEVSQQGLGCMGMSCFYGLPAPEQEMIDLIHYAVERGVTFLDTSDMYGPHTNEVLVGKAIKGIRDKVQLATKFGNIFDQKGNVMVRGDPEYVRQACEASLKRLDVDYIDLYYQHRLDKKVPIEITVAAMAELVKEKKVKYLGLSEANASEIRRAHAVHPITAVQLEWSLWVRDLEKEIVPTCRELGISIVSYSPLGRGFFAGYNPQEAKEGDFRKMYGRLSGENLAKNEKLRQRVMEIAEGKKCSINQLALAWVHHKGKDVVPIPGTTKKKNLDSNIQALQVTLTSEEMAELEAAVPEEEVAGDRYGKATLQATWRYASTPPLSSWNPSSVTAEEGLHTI
The experiment in a line: spectrophotometric NADPH oxidation at […] nm, Michaelis-Menten non-linear fit. The format is biochemical. As to conditions: 150 µM NADPH, 50 mM Tris-HCl pH 7.0, 25 °C; apparent constant.

Substrate in data set [1]: CC(=O)C=O
As to the kind of experiment: purified protein. It is filed as biochemical, Physcomitrium patens. Conditions: 150 µM NADPH, 50 mM Tris-HCl pH 7.0, 25 °C, apparent constant.

Substrate in data set [2]: O=CC=O
The experiment in a line: purified protein. It is filed as biochemical, Physcomitrium patens. Conditions: 150 µM NADPH, 50 mM Tris-HCl pH 7.0, 25 °C, apparent constant.

As for `C=CC=O` [Acrolein], the Michaelis constant (Km) at PpAKR1A amounted to 6.2 ± 1.11 mM.

B1: PpAKR1A (Physcomitrium patens) (protein)
chain: T1 sequence (A9RMV1 1-354)
notes: full coding region (from …), expressed in E. coli BL21 from pMAL-c1 (BamHI/SalI); purified on Ni-NTA as 'His-fusion' (tag description inconsistent: MBP vector vs His)
As for B1, in “purified protein [1]”, the Km turned out to be 0.2262 ± 0.063 mM, the kcat worked out at 0.86 ± 0.055 s⁻¹ and the kcat/Km amounted to 3810 M⁻¹ s⁻¹. Further, in “purified protein [2]”, the Km is reported as 1.526 ± 0.237 mM, the kcat was found to be 0.063 ± 0.041 s⁻¹ and the catalytic efficiency (kcat/Km) is 63 M⁻¹ s⁻¹.
